Source: patent publication US20220348684A1 (YALE UNIVERSITY, published 2022)
Residue numbers refer to the chain shown, from its start. Ends that are not written are not given here. BSA = bovine serum albumin (carrier protein)

B1: monoclonal antibody 1F-26-1 (antibody, V domains shown)
VH: QSVKESEGGLFKPTDTLTLTCTVSGFSLSSYGVTWVRQAPGNGLEWIGLIGDRGTTFYASWAKSRSTITRNTNLNTVTLKMTRLTAADTATYFCARGSGYGARIWGPGTLVTVSS
VL: AQVLTQTPSPVSAAVGGTVTINCQSSQSVYKNNYLAWYQQKPGQPPKLLIYETSKLASGVPPRFSGSGSGTQFTLTISSVQCDDAATYYCQGGYSGVDFMAFGGGTEVVVKG
notes: Rabbit monoclonal from hybridoma, raised against the 1F peptide; also called IF 26-1
B2: monoclonal antibody 1F-42-7 (antibody, V domains shown)
VH: B1 VH with S29T, S30T, F57Y, A62V, K63N, S64G, S114A
VL: B1 VL with V11M, V15L, S28T, K31N, A36S, A57S
notes: Rabbit monoclonal from hybridoma, raised against the 1F peptide; Biotinylated in the biotin ELISA and Biacore assays; also called IF 42-7; M42
B3: monoclonal antibody 3A-5-2 (antibody, V domains shown)
VH: QSLEESGGRLVTPGTPLTLTCTVSGFSLNNYHIYWVRQAPGKGLEYIGIIFNGGTYYARWTKGRFTISKTSTTVDLKMTSLTTEDTATYFCARGDGIWGPGTLVTVSL
VL: AQVLTQTPASVSAAVGGTVTINCQASQSVFNNNYLAWYQQKPGQPPKRLIYSASTLASGVSSRFKGSGSGTEFTLTMSGVECDDAATYYCAGSFDCNSGDCVAFGGGTEVVVKG
notes: Rabbit monoclonal from hybridoma, raised against the renalase-2 specific peptide 3A (3A5)
B4: monoclonal antibody 1D-28-4 (antibody, V domains shown)
VH: QSVEESGGRLVTPGTPLTLTCTVSGFSLSSFAVGWVRQAPGKGLEYIGIISSVGITRYASWAAGRFTISKTSTTVDLKITSPTTEDTATYFCARYGYSGDVNRLDLWGQGTLVTVSS
VL: AQVLTQTASPVSAAVGGTVTINCQASQSVYDNNNLAWYQQKPGQPPKQLIYGASTLASGVSSRFKGSGSGTQFTLTISGVQCDDAATYYCLGEFSCSSADCFAFGGGTEVVVKG
notes: also called m28-RNLS; Ren1D 28-4
B5: M28-K5 (humanized, affinity-matured variant of M28) (antibody, V domains shown)
VH: EVQLVESGGGLVQPGGSLRLSCAASGFNLSSFAVHWVRQAPGKGLEWVALISGRGTRFYADSVKGRFTISKDTSKNTAYLQMNSLRAEDTAVYYCARHWYSGGVVRLDAWGQGTLVTVSS
VL: DIQMTQSPSSLSASVGDRVTITCRASQSVYDNNNVAWYQQKPGKAPKLLIYGASTLYSGVPSRFSGSRSGTDFTLTISSLQPEDFATYYCLGEGPCSVTDCLIFGQGTKVEIKR
B6: M28-K13 (humanized, affinity-matured variant of M28) (antibody, V domains shown)
VH: B5 VH with S52G, G53V, T56S, R57L, F58Y
VL: B5 VL with G94F, P95S, V98S, T99A, L102F, I103A
B7: M28-K2 (humanized, affinity-matured variant of M28) (antibody, V domains shown)
VH: B5 VH with S52G, G53V, T56S, R57L, F58Y
VL: B5 VL
B8: M28-K14 (humanized, affinity-matured variant of M28) (antibody, V domains shown)
VH: B5 VH with H98Y, W99G, G103D, V105N, A109L
VL: B5 VL
notes: the residue limits are my own count; also called M28-14
B9: M28-K16 (humanized, affinity-matured variant of M28) (antibody, V domains shown)
VH: B5 VH
VL: B5 VL with G94F, P95S, V98S, T99A, L102F, I103A
notes: the residue limits are my own count

What was measured:
[1] = target: T1, renalase-2 (recombinant protein) (human, UniProt Q5VYX0 18-293); assay: ELISA on coated renalase-2, antibody dilution series (axis: log (ng/ml) supe), anti-rabbit IgG-HRP
T1 construct: Bacterially expressed and coated on ELISA plates; also called renalase-2 isoform
T1 sequence (Q5VYX0 other isoform, or with tags, fused parts or gaps limits assumed): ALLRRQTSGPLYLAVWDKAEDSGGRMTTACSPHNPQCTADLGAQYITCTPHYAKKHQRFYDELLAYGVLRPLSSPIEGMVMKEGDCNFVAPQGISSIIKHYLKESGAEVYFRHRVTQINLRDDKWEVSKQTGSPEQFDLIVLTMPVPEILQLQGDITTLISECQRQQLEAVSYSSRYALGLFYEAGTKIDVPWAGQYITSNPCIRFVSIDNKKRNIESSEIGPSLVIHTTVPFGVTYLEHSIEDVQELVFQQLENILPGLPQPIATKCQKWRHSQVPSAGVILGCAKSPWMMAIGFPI
Experimental: Bacterially-expressed renalase-1 and 2 isoforms, were diluted to 100 ng/well in PBS and bound to a 96 well microtiter plate. The plate was blocked with a solution of 8% NFDM in PBS for one hour at 33° C. The renalase proteins were probed with a dilution series of the antibodies 1D-28-4, 1D-37-10, 1F-42-7, 1F-26-1 and 3A5-2. The starting concentration of antibody was typically 1μg/mL, with two-fold dilution steps prepared in PBS containing Tween-20 to 0.05% PBST. After one hour incubation at 33° C., the plate was rinsed three times with PBST. Antibody binding was assayed by adding HRP-conjugated anti-rabbit IgG at 50 ng/mL, 50μL per well. The plate was incubated at room temperature for 40 minutes. After incubation, the plate was washed three times with PBST and once with PBS. The HRP substrate 3, 3′, 5, 5′-tetramethylbenzidine (TMB) was added to 100 μL per well, and plate was incubated for approximately 5 minutes at room temperature. To stop the reaction, 100 μL 2 N H₂SO₄ was added to each well. The plate was read at 450 nm in a spectrophotometer.

[2] = target: T2, 1F peptide conjugated to BSA; assay: ELISA on coated 1F peptide-BSA conjugate, antibody dilution series, anti-rabbit IgG-HRP
T2 construct: Renalase peptide present only in renalase-1; also called 1F-BSA protein; 1F antigen; not shown: BSA carrier, chemically conjugated via the cysteine
T2 peptide: C(BSA)VLEALKNYI
Experimental: (§1) Peptide-Antigen Specificity ELISA: Bovine serum albumin (BSA)-conjugated renalase peptide antigen, diluted to 100 ng/well in PBS, was bound to a 96 well microtiter plate by overnight incubation at 4° C. The plate was blocked with a solution of 8% NFDM in PBS for one hour at 33° C. The peptide antigen was probed with a dilution series of the antibody raised against it, or with an antibody raised against a different antigen. The starting concentration of antibody was typically 5 μg/mL, with two-fold dilution steps prepared in PBS containing Tween-20 to 0.05% (PBST). After one hour incubation at 33° C., the plate was rinsed three times with PBST. Antibody binding was assayed by adding HRP-conjugated anti-rabbit IgG at 50 ng/mL, 50 μL per well. The plate was incubated at room temperature for 40 minutes. After incubation, the plate was washed three times with PBST and once with PBS. The HRP substrate 3, 3′, 5, 5′-tetramethylbenzidine (TMB) was added to 100 μL per well, and plate was incubated for approximately 5 minutes at room temperature. To stop the reaction, 100 μL 2 N […] was added to each well. The plate was read at 450 nm in a spectrophotometer.
(§2) Renalase peptides used for immunization were synthesized, then conjugated to bovine serum albumin (BSA). […] The plate was read at 450 nm in a spectrophotometer after reaction of HRP with the substrate TMB. […]

[3] = target: T3, renalase-1 (full-length recombinant protein) (human, UniProt Q5VYX0 18-342, limits assumed); assay: competition ELISA on coated renalase-1: unconjugated 1F 42-7 titrated against a constant amount of biotinylated 1F 26-1, NeutrAvidin-HRP [panel A]
T3 construct: Coated on ELISA plates as bacterially expressed renalase-1; Injected as purified recombinant renalase-1 in the Biacore assay; also called renalase-1 protein; RNLS
T3 sequence (Q5VYX0 18-342 limits assumed): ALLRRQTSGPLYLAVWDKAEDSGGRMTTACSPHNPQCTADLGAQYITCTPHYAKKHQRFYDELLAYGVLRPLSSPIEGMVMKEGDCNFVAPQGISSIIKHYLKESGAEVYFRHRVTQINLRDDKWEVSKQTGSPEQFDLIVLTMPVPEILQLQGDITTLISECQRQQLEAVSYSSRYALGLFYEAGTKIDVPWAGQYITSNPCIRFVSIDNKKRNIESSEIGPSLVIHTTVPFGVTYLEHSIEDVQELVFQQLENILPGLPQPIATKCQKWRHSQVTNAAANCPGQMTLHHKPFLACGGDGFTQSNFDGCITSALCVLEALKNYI
Experimental: (§3) Specificity of Epitope Binding: Bacterially-expressed renalase isoforms, diluted to 100 ng/well in PBS, were bound to a 96 well microtiter plate by overnight incubation at 4° C. The plate was blocked with a solution of 8% NFDM in PBS for one hour at 33° C. The renalase protein was probed with a dilution series of an unconjugated antibody, typically starting at 1 μg/mL, mixed with a different biotinylated antibody. […] Both antibodies were mixed together in PBST and applied as one addition of 50μL per well. After one hour incubation at 33° C., the plate was rinsed three times with PBST. Binding of the biotinylated antibody to renalase was assayed by adding HRP-conjugated Neutravidin (HRP-NA) at 0.4 ng/mL, 50 μL per well. The plate was incubated at room temperature for 40 minutes. After incubation, the plate was washed three times with PBST and once with PBS. The HRP substrate 3, 3′, 5, 5′-tetramethylbenzidine (TMB) was added to 100 μL per well, and plate was incubated for approximately 5 minutes at room temperature. To stop the reaction, 100 μL 2 N H2504 was added to each well. The plate was read at 450 nm in a spectrophotometer.
(§4) Bacterially-expressed renalase-1, diluted to 100ng/well in PBS, was bound to a 96 well microtiter plate by overnight incubation at 4° C. […]

[4] = target: T4, peptide 3A conjugated to BSA; assay: ELISA on peptide antigen
T4 construct: Renalase-2 specific peptide; also called 3A5; not shown: BSA carrier, chemically conjugated via the cysteine
T4 peptide: PSAGVILGC(BSA)
Experimental: as §1, §2

[5] = target: T3, renalase-1 (full-length recombinant …); assay: competition ELISA on coated renalase-1: unconjugated 1D 28-4 titrated against a constant amount of biotinylated 1D 37-10, NeutrAvidin-HRP [panel A]
Experimental: as §3, §4

human renalase [6] = target: T5, human renalase (human, UniProt Q5VYX0 18-342, limits assumed); assay: multipoint ELISA (A450), IgG dilution series on human renalase
T5 construct: also called human RNLS; hRNLS
T5 sequence (Q5VYX0 18-342 limits assumed): as above

human renalase [7] = target: T5, human renalase; assay: cell-based or functional assay
mouse renalase [8] = target: T6, mouse renalase (mouse, UniProt A7RDN6 18-342, limits assumed); assay: cell-based or functional assay
T6 sequence (A7RDN6 18-342 limits assumed): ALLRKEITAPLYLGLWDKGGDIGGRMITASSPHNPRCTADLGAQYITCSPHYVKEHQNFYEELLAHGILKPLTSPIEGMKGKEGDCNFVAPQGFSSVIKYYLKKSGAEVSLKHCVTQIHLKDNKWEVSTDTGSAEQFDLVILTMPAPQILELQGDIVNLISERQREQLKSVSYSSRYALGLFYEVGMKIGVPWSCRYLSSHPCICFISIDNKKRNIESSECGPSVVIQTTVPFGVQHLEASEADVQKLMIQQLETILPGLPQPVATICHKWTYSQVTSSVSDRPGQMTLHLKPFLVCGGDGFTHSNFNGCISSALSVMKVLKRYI

mouse renalase [9] = target: T6, mouse renalase; assay: multipoint ELISA (A450), IgG dilution series on mouse renalase

Binder	EC50 (read off the curve) (human renalase [6])	IC50 of % cell survival, BxPC3 (human pancreatic adenocarcinoma) cells (human renalase [7])	IC50 of % cell survival, YUMM1.7 (mouse melanoma) cells (mouse renalase [8])	further results
B1	–	–	–	binding result [1]: no binding (tested: 1000 ng/ml); EC50 (read off the curve) [2]: ~300 ng/mL
B2	–	–	–	IC50 (read off the curve) [3]: ~1000 ng/mL; binding result [1]: no binding (tested: 1000 ng/ml); EC50 (read off the curve) [2]: ~300 ng/mL
B3	–	–	–	binding result [4]: binds
B4	~0.3 nM	1.5 nM	70 nM	IC50 (read off the curve) [5]: ~2000 ng/mL
B5	–	24.5 nM	3760 nM	–
B6	–	25.5 nM	31.5 nM	–
B7	–	31.7 nM	1330 nM	–
B8	~0.06 nM	–	1.41 nM	EC50 (read off the curve) (mouse renalase [9]): ~0.08 nM
B9	~0.05 nM	1700 nM	17.5 nM	EC50 (read off the curve) (mouse renalase [9]): ~0.06 nM
